# Results as given in US20250154278A1 (JANUX THERAPEUTICS, published 2025).
# Like-named read-outs stand apart in the source and are kept apart here.
# T1: Human TROP2 full length, on tumor cells (HCT116, MDAMB231, NCI-H292) (human, UniProt P09758 31-323)
# T1 sequence: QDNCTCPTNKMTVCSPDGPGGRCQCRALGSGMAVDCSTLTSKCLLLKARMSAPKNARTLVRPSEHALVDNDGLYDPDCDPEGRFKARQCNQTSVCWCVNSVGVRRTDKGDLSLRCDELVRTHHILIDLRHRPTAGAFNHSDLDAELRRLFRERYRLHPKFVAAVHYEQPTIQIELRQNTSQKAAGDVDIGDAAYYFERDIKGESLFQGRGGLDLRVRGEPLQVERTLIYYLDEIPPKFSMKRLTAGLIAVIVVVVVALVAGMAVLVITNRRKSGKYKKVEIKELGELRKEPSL
# T2: Human TROP2 ECD (31-274 AA), biotinylated (human, UniProt P09758 31-274, biotinylated (site not stated))
# T2 construct: the entry is already residues 31-274; also called Human TROP2-biotin; hTROP2-Biotin
# T2 sequence: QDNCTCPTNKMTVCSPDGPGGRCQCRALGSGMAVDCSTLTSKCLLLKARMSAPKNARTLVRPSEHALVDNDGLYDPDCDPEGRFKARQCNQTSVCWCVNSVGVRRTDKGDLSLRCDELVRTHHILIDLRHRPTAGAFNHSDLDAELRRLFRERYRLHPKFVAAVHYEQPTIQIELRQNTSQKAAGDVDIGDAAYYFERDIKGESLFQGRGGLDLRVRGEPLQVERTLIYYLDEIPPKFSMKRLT
# T3: Cyno CD3 (Antigen was biotinylated for capture on neutravidin plates; the site of biotin and any tag are not stated.)
# T3 construct: also called cynomolgus monkey CD3
# T3 chain: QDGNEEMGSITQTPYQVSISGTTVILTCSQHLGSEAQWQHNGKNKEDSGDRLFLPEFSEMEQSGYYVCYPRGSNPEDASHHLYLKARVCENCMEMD
# T4: Cynomolgus monkey TROP2 full length, on recombinant HEK293 cells (cynomolgus monkey, UniProt P09758 31-323 (human entry))
# T4 chain: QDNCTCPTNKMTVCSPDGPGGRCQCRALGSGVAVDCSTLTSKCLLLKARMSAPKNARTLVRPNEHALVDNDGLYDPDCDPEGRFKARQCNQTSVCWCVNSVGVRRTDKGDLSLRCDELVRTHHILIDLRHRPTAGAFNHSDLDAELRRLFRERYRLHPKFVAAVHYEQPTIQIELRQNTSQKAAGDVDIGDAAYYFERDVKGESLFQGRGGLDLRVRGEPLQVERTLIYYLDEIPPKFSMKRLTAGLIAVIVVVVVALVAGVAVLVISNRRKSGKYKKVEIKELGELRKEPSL
# What was measured:
# [1] = biological target: T1, Human TROP2 full length, on tumor cells …; experiment: cell-based or functional assay
# [2] = biological target: T2, Human TROP2 ECD (31-274 AA), …; experiment: ELISA, immobilized TROP2, HRP secondary antibody
# [3] = biological target: T1, Human TROP2 full length, on tumor cells …; experiment: cell-based or functional assay; remark: listed apart in the source
# [4] = biological target: T1, Human TROP2 full length, on tumor cells …; experiment: cell-based or functional assay; remark: listed apart in the source
# [5] = biological target: T1, Human TROP2 full length, on tumor cells …; experiment: cell-based or functional assay; remark: listed apart in the source
# [6] = biological target: T5, human CD3 epsilon, biotinylated (human, UniProt P07766 23-126, limits assumed, biotinylated (site not stated)); experiment: ELISA, CD3e-biotin captured
# T5 construct: Printed in places as CD36, CD38, CD3c or CD3&; also called CD3e-bio; human CD3e-biotin
# [7] = biological target: T5, human CD3 epsilon, biotinylated; experiment: BLI, CD3e-biotin on sensor (summary)
# Cyno CD3 = biological target: T3, Cyno CD3; experiment: Cyno CD3 binding ELISA
# [8] = biological target: T5, human CD3 epsilon, biotinylated; experiment: Human CD3 binding ELISA
# [9] = biological target: T2, Human TROP2 ECD (31-274 AA), …; experiment: TROP2 binding ELISA, biotinylated TROP2 on neutravidin plates
# [10] = biological target: T1, Human TROP2 full length, on tumor cells …; experiment: cell-based or functional assay; remark: listed apart in the source
# [11] = biological target: T4, Cynomolgus monkey TROP2 full length, on …; experiment: cell-based or functional assay
# [12] = biological target: T5, human CD3 epsilon, biotinylated; experiment: CD3 binding ELISA
# [13] = biological target: T2, Human TROP2 ECD (31-274 AA), …; experiment: TROP2 binding ELISA; the table's head prints only 'EC50', the unit is that of the axis Log [TCE nM]
# [14] = biological target: T1, Human TROP2 full length, on tumor cells …; experiment: cell-based or functional assay; remark: listed apart in the source
# [15] = biological target: T2, Human TROP2 ECD (31-274 AA), …; experiment: BLI, human TROP2-biotin (10 nM) on sensor, 50 nM TCE
# T5 sequence (P07766 23-126 limits assumed): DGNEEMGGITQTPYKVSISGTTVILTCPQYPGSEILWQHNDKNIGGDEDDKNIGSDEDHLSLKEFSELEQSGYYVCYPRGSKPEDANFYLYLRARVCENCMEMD
binder,measurement,setting,value
"TCE-4 (TROP2 Fab HC F108A TCE, scFv on the Fab LC) (bispecific antibody, Description names HisTag AviTag on the HC) light: not shown heavy: QVQLQQSGSELKKPGASVKVSCKASGYTFTNYGMNWVKQAPGQGLKWMGWINTYTGEPTYTDDFKGRFAFSLDTSVSTAYLQISSLKADDTAVYFCARGGFGSSYWYADVWGQGSLVTVSSASTKGPSVFPLAPSSKSTSGGTAALGCLVKDYFPEPVTVSWNSGALTSGVHTFPAVLQSSGLYSLSSVVTVPSSSLGTQTYICNVNHKPSNTKVDKKVEPKSC","TCE Cytotoxicity EC50, H292 + CD8+ T cells",[1],0.0004 nM
same,"TCE Cytotoxicity EC50, HCT116 + CD8+ T cells",[1],0.0183 nM
same,"TCE Cytotoxicity EC50, MDAMB231 + CD8+ T cells",[1],0.0063 nM
same,EC50,[2],7.3 nM
TCE-9 (anti-CD3 scFv wt + linker + anti-TROP2 HC wt; anti-TROP2 LC wt) (bispecific antibody) light: DIQLTQSPSSLSASVGDRVSITCKASQDVSIAVAWYQQKPGKAPKLLIYSASYRYTGVPDRFSGSGSGTDFTLTISSLQPEDFAVYYCQQHYITPLTFGAGTKVEIKRTVAAPSVFIFPPSDEQLKSGTASVVCLLNNFYPREAKVQWKVDNALQSGNSQESVTEQDSKDSTYSLSSTLTLSKADYEKHKVYACEVTHQGLSSPVTKSFNRGEC heavy: not shown,H292 Cytotox EC50,[3],0.0007 nM
same,H292 Cytotox EC50,[4],0.0007 nM
same,H292 Cytotox EC50,[5],0.0007 nM
"TCE-7 (TROP2 Fab HC F108A TCE, scFv on the Fab HC) (bispecific antibody, Description names a HisTag on the HC) light: DIQLTQSPSSLSASVGDRVSITCKASQDVSIAVAWYQQKPGKAPKLLIYSASYRYTGVPDRFSGSGSGTDFTLTISSLQPEDFAVYYCQQHYITPLTFGAGTKVEIKRTVAAPSVFIFPPSDEQLKSGTASVVCLLNNFYPREAKVQWKVDNALQSGNSQESVTEQDSKDSTYSLSSTLTLSKADYEKHKVYACEVTHQGLSSPVTKSFNRGEC heavy: not shown","TCE Cytotoxicity EC50, H292 + CD8+ T cells",[1],0.0056 nM
same,"TCE Cytotoxicity EC50, HCT116 + CD8+ T cells",[1],0.206 nM
same,"TCE Cytotoxicity EC50, MDAMB231 + CD8+ T cells",[1],0.0478 nM
same,EC50,[2],1.4 nM
"TCE-34 (anti-CD3 scFv F240A, anti-TROP2 wt) (bispecific antibody) light: DIQLTQSPSSLSASVGDRVSITCKASQDVSIAVAWYQQKPGKAPKLLIYSASYRYTGVPDRFSGSGSGTDFTLTISSLQPEDFAVYYCQQHYITPLTFGAGTKVEIKRTVAAPSVFIFPPSDEQLKSGTASVVCLLNNFYPREAKVQWKVDNALQSGNSQESVTEQDSKDSTYSLSSTLTLSKADYEKHKVYACEVTHQGLSSPVTKSFNRGEC heavy: not shown",H292 Cytotox EC50,[4],0.02 nM
same,EC50,[6],0.6 nM
same,CD3 t1/2,[7],39 s
"TCE-39 (anti-CD3 scFv F104A, anti-TROP2 HC F108A) (bispecific antibody) light: DIQLTQSPSSLSASVGDRVSITCKASQDVSIAVAWYQQKPGKAPKLLIYSASYRYTGVPDRFSGSGSGTDFTLTISSLQPEDFAVYYCQQHYITPLTFGAGTKVEIKRTVAAPSVFIFPPSDEQLKSGTASVVCLLNNFYPREAKVQWKVDNALQSGNSQESVTEQDSKDSTYSLSSTLTLSKADYEKHKVYACEVTHQGLSSPVTKSFNRGEC heavy: not shown",EC50,Cyno CD3,0.671 nM
same,EC50,[8],0.761 nM
same,EC50,[9],1.02 nM
"TCE-40 (anti-CD3 scFv F240A, anti-TROP2 HC F108A) (bispecific antibody) light: DIQLTQSPSSLSASVGDRVSITCKASQDVSIAVAWYQQKPGKAPKLLIYSASYRYTGVPDRFSGSGSGTDFTLTISSLQPEDFAVYYCQQHYITPLTFGAGTKVEIKRTVAAPSVFIFPPSDEQLKSGTASVVCLLNNFYPREAKVQWKVDNALQSGNSQESVTEQDSKDSTYSLSSTLTLSKADYEKHKVYACEVTHQGLSSPVTKSFNRGEC heavy: not shown",HCT116 Cytotox EC50,[10],> 3 nM
same,CynoTROP2 + HEK293 cells Cytotox EC50,[11],0.005 nM
same,EC50,Cyno CD3,0.482 nM
same,EC50,[8],0.531 nM
"TCE-44 (bispecific antibody, also called anti-CD3 scFv (H101A) + linker + anti-TROP2 (D109A) HC; anti-TROP2 LC wt) light chain (anti-TROP2 LC wt): DIQLTQSPSSLSASVGDRVSITCKASQDVSIAVAWYQQKPGKAPKLLIYSASYRYTGVPDRFSGSGSGTDFTLTISSLQPEDFAVYYCQQHYITPLTFGAGTKVEIKRTVAAPSVFIFPPSDEQLKSGTASVVCLLNNFYPREAKVQWKVDNALQSGNSQESVTEQDSKDSTYSLSSTLTLSKADYEKHKVYACEVTHQGLSSPVTKSFNRGEC heavy chain (anti-CD3 scFv H101A + linker + anti-TROP2 D109A HC): not shown",EC50,[12],0.595 nM
same,EC50,[13],1.38 nM
"TCE-45 (anti-CD3 scFv F104A, anti-TROP2 HC D109A) (bispecific antibody) light: DIQLTQSPSSLSASVGDRVSITCKASQDVSIAVAWYQQKPGKAPKLLIYSASYRYTGVPDRFSGSGSGTDFTLTISSLQPEDFAVYYCQQHYITPLTFGAGTKVEIKRTVAAPSVFIFPPSDEQLKSGTASVVCLLNNFYPREAKVQWKVDNALQSGNSQESVTEQDSKDSTYSLSSTLTLSKADYEKHKVYACEVTHQGLSSPVTKSFNRGEC heavy: not shown",EC50,[13],0.893 nM
"TCE-41 (anti-CD3 scFv with P41S, A49G, N87S and further mutations as in TCE-35; anti-TROP2 HC F108A) (bispecific antibody) light: DIQLTQSPSSLSASVGDRVSITCKASQDVSIAVAWYQQKPGKAPKLLIYSASYRYTGVPDRFSGSGSGTDFTLTISSLQPEDFAVYYCQQHYITPLTFGAGTKVEIKRTVAAPSVFIFPPSDEQLKSGTASVVCLLNNFYPREAKVQWKVDNALQSGNSQESVTEQDSKDSTYSLSSTLTLSKADYEKHKVYACEVTHQGLSSPVTKSFNRGEC heavy: EVQLVESGGGLVQPGGSLKLSCAASGFTFNKYAMNWVRQASGKGLEWVGRIRSKYNNYATYYADSVKDRFTISRDDSKNTAYLQMNSLKTEDTAVYYCVRHGNFGNSYISYWAYWGQGTLVTVSSGGGGSGGGGSGGGGSQTVVTQEPSFSVSPGGTVTLTCRSSTGAVTSGNYANWVQQTPGQAPRGLIGGTKFLAPGVPDRFSGSILGNKAALTITGAQADDESDYYCVLWYSNRWVFGGGTKLTVLGGGGSQVQLQQSGSELKKPGASVKVSCKASGYTFTNYGMNWVKQAPGQGLKWMGWINTYTGEPTYTDDFKGRFAFSLDTSVSTAYLQISSLKADDTAVYFCARGGFGSSYWYADVWGQGSLVTVSSASTKGPSVFPLAPSSKSTSGGTAALGCLVKDYFPEPVTVSWNSGALTSGVHTFPAVLQSSGLYSLSSVVTVPSSSLGTQTYICNVNHKPSNTKVDKKVEPKSC",HCT116 Cytotox EC50,[10],0.073 nM
same,H292 Cytotox EC50,[14],0.003 nM
same,Kd,[15],1.22 nM
